{
  "source": "patent EP2161338A1",
  "key": {"[1]": {"molecular_target": "DNAX Leukocyte Associated Immunoglobulin-like Receptor (DLAIR-1), the DX26 antigen, product of the YE01 gene (human) (UniProt Q6GTX8)", "test": "flow cytometry on CEM T cell tumor cells, PE goat-anti-mouse-IgG second step"}, "[2]": {"molecular_target": "DNAX Leukocyte Associated Immunoglobulin-like Receptor (DLAIR-1), the DX26 antigen, product of the YE01 gene (human) (UniProt Q6GTX8)", "test": "flow cytometry on Peer T cell tumor cells, PE goat-anti-mouse-IgG second step"}, "[3]": {"molecular_target": "DNAX Leukocyte Associated Immunoglobulin-like Receptor (DLAIR-1), the DX26 antigen, product of the YE01 gene (human) (UniProt Q6GTX8)", "test": "flow cytometry on HUT78 T cell tumor cells, PE goat-anti-mouse-IgG second step"}, "[4]": {"molecular_target": "DNAX Leukocyte Associated Immunoglobulin-like Receptor (DLAIR-1), the DX26 antigen, product of the YE01 gene (human) (UniProt Q6GTX8)", "test": "flow cytometry on Molt4 T cell tumor cells, PE goat-anti-mouse-IgG second step"}, "[5]": {"molecular_target": "DNAX Leukocyte Associated Immunoglobulin-like Receptor (DLAIR-1), the DX26 antigen, product of the YE01 gene (human) (UniProt Q6GTX8)", "test": "flow cytometry on U937 myeloid tumor cells, PE goat-anti-mouse-IgG second step"}, "[6]": {"molecular_target": "DNAX Leukocyte Associated Immunoglobulin-like Receptor (DLAIR-1), the DX26 antigen, product of the YE01 gene (human) (UniProt Q6GTX8)", "test": "flow cytometry on Jurkat T cell tumor cells, PE goat-anti-mouse-IgG second step"}, "[7]": {"molecular_target": "DNAX Leukocyte Associated Immunoglobulin-like Receptor (DLAIR-1), the DX26 antigen, product of the YE01 gene (human) (UniProt Q6GTX8)", "test": "flow cytometry on HL60 promyeloid tumor cells, PE goat-anti-mouse-IgG second step"}, "[8]": {"molecular_target": "DNAX Leukocyte Associated Immunoglobulin-like Receptor (DLAIR-1), the DX26 antigen, product of the YE01 gene (human) (UniProt Q6GTX8)", "test": "flow cytometry on CEM T cell tumor cells (DLAIR-positive), PE goat-anti-mouse-IgG second step"}, "[9]": {"molecular_target": "DNAX Leukocyte Associated Immunoglobulin-like Receptor (DLAIR-1), the DX26 antigen, product of the YE01 gene (human) (UniProt Q6GTX8)", "test": "flow cytometry on Peer T cell tumor cells (DLAIR-positive), PE goat-anti-mouse-IgG second step"}, "[10]": {"molecular_target": "DNAX Leukocyte Associated Immunoglobulin-like Receptor (DLAIR-1), the DX26 antigen, product of the YE01 gene (human) (UniProt Q6GTX8)", "test": "flow cytometry on Molt4 T cell tumor cells (DLAIR-positive), PE goat-anti-mouse-IgG second step"}, "[11]": {"molecular_target": "DNAX Leukocyte Associated Immunoglobulin-like Receptor (DLAIR-1), the DX26 antigen, product of the YE01 gene (human) (UniProt Q6GTX8)", "test": "flow cytometry on U937 myeloid tumor cells (DLAIR-positive), PE goat-anti-mouse-IgG second step"}, "[12]": {"molecular_target": "DNAX Leukocyte Associated Immunoglobulin-like Receptor (DLAIR-1), the DX26 antigen, product of the YE01 gene (human) (UniProt Q6GTX8)", "test": "flow cytometry on Jurkat T cell tumor cells (DLAIR-positive), PE goat-anti-mouse-IgG second step"}, "[13]": {"molecular_target": "DNAX Leukocyte Associated Immunoglobulin-like Receptor (DLAIR-1), the DX26 antigen, product of the YE01 gene (human) (UniProt Q6GTX8)", "test": "flow cytometry on HL60 promyeloid tumor cells (DLAIR-positive), PE goat-anti-mouse-IgG second step"}},
  "data": [
    {"substance": "DX26 monoclonal antibody", "values": [
      {"measurement": "mean fluorescence intensity (mean fluorescence intensity)", "setting": "[1]", "result": 92.7},
      {"measurement": "mean fluorescence intensity (mean fluorescence intensity)", "setting": "[2]", "result": 29.1},
      {"measurement": "mean fluorescence intensity (mean fluorescence intensity)", "setting": "[3]", "result": 25.8},
      {"measurement": "mean fluorescence intensity (mean fluorescence intensity)", "setting": "[4]", "result": 30.7},
      {"measurement": "mean fluorescence intensity (mean fluorescence intensity)", "setting": "[5]", "result": 49.5},
      {"measurement": "mean fluorescence intensity (mean fluorescence intensity)", "setting": "[6]", "result": 47.1},
      {"measurement": "mean fluorescence intensity (mean fluorescence intensity)", "setting": "[7]", "result": 46.9}
    ]},
    {"substance": "control IgG1 (antibody)", "values": [
      {"measurement": "mean fluorescence intensity (mean fluorescence intensity)", "setting": "[8]", "result": "< 5"},
      {"measurement": "mean fluorescence intensity (mean fluorescence intensity)", "setting": "[9]", "result": "< 5"},
      {"measurement": "mean fluorescence intensity (mean fluorescence intensity)", "setting": "[10]", "result": "< 5"},
      {"measurement": "mean fluorescence intensity (mean fluorescence intensity)", "setting": "[11]", "result": "< 5"},
      {"measurement": "mean fluorescence intensity (mean fluorescence intensity)", "setting": "[12]", "result": "< 5"},
      {"measurement": "mean fluorescence intensity (mean fluorescence intensity)", "setting": "[13]", "result": "< 5"}
    ]}
  ]
}
